Drawing on patent publication EP1224222B1 (ChemoCentryx, Inc., dated 2010), this text covers Kd for 1 molecule.

The target in this test is T1, human CCX CKR with N-terminal Flag epitope, stably expressed on HEK293 cells (human, UniProt Q9NPB9 1-350).
T1 construct: also called HEK293-CCX CKR cells
T1 sequence: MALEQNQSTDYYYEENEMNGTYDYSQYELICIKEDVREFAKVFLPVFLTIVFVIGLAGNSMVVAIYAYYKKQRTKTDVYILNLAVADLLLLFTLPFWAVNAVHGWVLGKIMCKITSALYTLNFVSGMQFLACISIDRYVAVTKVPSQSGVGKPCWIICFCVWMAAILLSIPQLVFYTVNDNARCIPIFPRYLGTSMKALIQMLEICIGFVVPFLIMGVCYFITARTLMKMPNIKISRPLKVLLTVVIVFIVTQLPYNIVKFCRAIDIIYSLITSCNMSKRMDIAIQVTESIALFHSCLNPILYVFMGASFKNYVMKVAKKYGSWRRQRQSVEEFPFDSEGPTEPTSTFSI
Put plainly: radioligand binding competition on CCX CKR stable transfectants (similar experiments).

B1: murine CTACK (ligand, UniProt Q9Z1X0 26-120, looked up)
chain: LPLPSSTSCCTQLYRQPLPSRLLRRIVHMELQEADGDCHLQAVVLHLARRSVCVHPQNRSLARWLERQGKRLQGTVPSLNLVLQKKMYSHPQQQN
notes: also called mCTACK; CCL27
By Kd is commonly meant the free concentration of one partner at which half of the binding sites on the other are occupied at equilibrium, for simple one-to-one binding. A higher Kd goes with a looser complex. B1 yielded a Kd of about 9 nM.
